Data as given in the supplement of paper PMC10065799, “High-throughput profiling of sequence recognition by tyrosine kinases and SH2 domains using bacterial peptide display” (eLife, 2023).

Columns and labels:
[1] = system: AncSZ; experiment: phosphorylation enrichment, bacterial display (enrichment ratio); higher = better substrate or ligand; peptides without Tyr show the background
[2] = biological target: EPHB1 (UniProt P54762); experiment: as above
[3] = biological target: EPHB2 (UniProt P29323); experiment: as above
[4] = biological target: FGFR1 (UniProt P11362); experiment: as above
Chain of FGFR1 (P11362 whole entry, looked up): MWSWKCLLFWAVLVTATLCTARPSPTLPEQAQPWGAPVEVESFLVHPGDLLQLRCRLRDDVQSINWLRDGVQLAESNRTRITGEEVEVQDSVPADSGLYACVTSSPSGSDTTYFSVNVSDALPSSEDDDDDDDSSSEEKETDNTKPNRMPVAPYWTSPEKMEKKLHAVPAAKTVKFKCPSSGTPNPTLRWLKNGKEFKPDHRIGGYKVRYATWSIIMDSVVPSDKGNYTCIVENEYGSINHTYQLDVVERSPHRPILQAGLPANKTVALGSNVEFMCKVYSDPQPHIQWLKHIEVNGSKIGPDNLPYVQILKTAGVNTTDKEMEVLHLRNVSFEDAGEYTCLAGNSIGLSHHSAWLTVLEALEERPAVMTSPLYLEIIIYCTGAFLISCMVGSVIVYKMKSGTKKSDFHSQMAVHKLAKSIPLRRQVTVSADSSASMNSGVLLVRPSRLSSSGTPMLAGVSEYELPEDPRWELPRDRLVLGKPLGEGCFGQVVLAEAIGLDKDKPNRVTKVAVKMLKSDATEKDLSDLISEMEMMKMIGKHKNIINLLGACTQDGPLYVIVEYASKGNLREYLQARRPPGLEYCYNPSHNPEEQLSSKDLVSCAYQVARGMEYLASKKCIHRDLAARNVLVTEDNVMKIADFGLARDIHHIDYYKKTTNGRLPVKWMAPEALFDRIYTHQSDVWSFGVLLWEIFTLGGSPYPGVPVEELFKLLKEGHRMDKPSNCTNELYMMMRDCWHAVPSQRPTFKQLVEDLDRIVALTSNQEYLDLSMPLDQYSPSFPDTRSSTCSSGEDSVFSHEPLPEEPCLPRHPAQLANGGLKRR

[5] = biological target: FGFR3 (UniProt P22607); experiment: as above
[6] = system: Fer (mouse); experiment: as above
[7] = biological target: Fes (UniProt P07332); experiment: as above
Chain of Fes (P07332 whole entry, looked up): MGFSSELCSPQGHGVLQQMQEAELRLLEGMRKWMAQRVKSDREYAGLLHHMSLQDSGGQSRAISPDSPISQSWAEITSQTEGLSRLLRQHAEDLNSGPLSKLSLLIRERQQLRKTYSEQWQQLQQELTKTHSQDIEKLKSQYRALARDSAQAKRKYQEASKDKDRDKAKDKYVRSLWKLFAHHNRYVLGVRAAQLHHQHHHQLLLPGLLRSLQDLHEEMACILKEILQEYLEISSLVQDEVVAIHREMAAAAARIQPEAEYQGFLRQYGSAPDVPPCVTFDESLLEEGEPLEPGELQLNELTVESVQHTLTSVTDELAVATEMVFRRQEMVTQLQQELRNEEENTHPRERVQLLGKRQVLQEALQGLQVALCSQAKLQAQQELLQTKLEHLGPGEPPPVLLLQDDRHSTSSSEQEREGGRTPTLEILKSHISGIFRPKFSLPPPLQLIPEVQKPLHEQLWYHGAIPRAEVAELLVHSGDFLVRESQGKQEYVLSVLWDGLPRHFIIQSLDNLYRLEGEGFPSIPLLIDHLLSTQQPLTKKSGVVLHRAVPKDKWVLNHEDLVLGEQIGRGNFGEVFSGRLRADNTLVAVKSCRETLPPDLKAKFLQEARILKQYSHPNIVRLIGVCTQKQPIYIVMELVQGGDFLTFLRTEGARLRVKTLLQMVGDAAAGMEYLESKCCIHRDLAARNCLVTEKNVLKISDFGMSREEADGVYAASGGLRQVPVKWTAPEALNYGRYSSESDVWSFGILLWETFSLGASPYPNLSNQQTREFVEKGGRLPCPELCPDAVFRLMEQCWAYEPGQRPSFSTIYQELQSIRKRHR

[8] = biological target: Fyn (UniProt P06241); experiment: as above
Chain of Fyn (P06241 whole entry, looked up): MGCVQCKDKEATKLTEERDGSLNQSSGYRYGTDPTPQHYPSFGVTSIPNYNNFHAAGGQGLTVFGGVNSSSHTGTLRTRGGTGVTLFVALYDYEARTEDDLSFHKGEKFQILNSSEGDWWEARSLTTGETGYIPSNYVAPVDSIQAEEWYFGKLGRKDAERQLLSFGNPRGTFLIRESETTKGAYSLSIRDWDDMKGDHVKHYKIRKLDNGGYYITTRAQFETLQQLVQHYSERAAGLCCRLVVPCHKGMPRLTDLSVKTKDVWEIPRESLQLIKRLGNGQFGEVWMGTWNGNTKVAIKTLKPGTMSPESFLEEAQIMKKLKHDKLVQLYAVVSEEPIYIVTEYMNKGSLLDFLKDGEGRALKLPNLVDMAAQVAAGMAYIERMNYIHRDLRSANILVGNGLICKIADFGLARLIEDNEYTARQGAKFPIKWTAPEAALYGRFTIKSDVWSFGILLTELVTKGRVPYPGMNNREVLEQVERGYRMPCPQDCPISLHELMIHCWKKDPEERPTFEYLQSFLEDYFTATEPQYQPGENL

[9] = biological target: Hck (UniProt P08631); experiment: as above
Chain of Hck (P08631 whole entry, looked up): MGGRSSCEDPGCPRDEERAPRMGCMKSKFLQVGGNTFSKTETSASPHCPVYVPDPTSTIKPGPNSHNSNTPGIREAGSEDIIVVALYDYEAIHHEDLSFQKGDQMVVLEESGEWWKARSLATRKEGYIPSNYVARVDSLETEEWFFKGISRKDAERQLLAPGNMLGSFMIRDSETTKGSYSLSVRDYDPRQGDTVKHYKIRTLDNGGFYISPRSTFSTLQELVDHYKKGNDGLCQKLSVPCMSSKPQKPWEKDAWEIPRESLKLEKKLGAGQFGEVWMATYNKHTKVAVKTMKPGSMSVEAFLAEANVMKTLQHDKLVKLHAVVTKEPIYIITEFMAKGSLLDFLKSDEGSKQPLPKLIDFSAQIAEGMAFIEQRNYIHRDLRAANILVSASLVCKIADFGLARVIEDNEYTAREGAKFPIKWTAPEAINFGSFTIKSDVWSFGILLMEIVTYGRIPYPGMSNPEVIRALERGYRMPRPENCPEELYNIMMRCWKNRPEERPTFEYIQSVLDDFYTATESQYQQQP

[10] = biological target: Jak2 (UniProt O60674); experiment: as above
[11] = biological target: MERTK (UniProt Q12866); experiment: as above
Chain of MERTK (Q12866 whole entry, looked up): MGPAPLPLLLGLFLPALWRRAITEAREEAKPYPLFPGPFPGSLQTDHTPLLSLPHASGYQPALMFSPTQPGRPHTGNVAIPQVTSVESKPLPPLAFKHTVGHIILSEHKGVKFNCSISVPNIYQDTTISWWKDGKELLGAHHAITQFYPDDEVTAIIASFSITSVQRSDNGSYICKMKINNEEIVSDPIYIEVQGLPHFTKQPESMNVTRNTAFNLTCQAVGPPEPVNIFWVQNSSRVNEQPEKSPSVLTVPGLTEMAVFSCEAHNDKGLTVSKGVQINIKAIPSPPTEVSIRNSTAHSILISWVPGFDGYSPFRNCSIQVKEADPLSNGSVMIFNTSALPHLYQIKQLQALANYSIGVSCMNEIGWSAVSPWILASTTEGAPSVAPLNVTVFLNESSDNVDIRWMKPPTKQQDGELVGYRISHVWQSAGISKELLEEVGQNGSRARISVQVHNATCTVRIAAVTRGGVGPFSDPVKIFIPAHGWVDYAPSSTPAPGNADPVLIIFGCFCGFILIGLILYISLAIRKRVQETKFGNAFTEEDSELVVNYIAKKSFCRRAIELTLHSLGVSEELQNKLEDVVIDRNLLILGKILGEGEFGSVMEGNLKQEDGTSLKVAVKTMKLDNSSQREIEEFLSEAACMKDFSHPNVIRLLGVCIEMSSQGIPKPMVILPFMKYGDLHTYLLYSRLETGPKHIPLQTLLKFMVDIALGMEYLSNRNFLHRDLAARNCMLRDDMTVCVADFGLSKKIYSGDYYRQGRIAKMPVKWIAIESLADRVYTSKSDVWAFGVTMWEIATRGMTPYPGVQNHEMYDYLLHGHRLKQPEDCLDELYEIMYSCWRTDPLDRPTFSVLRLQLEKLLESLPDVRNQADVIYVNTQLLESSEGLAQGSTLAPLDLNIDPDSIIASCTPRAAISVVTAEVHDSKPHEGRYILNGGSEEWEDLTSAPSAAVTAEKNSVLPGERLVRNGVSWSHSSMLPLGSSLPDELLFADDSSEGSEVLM

[12] = system: c-Abl (mouse); experiment: as above
[13] = system: c-Src; experiment: as above
[14] = biological target: Grb2 SH2 (UniProt P62993); experiment: SH2 binding enrichment of the phosphorylated peptide, bacterial display (enrichment ratio); higher = better substrate or ligand; peptides without Tyr show the background
[15] = biological target: SHP2-C SH2; experiment: as above
[16] = biological target: c-Src SH2; experiment: as above
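Throughout, for SH2 binding enrichment of the phosphorylated peptide, bacterial display: peptide library displayed on the E. coli surface as eCPX fusions, selected cells deep-sequenced, score is each peptide's frequency after selection divided by its frequency in the input.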
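Throughout, for phosphorylation enrichment, bacterial display: 11-residue human phosphosite peptides and single-mutation variants displayed on the E. coli surface, counted by deep sequencing, each peptide's frequency after selection divided by its frequency in the unselected input library; frequency after pTyr selection over input frequency; kinase dosed for 20-30% of maximal phosphorylation in three min.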

Chain of EPHB1 (P54762 whole entry, looked up): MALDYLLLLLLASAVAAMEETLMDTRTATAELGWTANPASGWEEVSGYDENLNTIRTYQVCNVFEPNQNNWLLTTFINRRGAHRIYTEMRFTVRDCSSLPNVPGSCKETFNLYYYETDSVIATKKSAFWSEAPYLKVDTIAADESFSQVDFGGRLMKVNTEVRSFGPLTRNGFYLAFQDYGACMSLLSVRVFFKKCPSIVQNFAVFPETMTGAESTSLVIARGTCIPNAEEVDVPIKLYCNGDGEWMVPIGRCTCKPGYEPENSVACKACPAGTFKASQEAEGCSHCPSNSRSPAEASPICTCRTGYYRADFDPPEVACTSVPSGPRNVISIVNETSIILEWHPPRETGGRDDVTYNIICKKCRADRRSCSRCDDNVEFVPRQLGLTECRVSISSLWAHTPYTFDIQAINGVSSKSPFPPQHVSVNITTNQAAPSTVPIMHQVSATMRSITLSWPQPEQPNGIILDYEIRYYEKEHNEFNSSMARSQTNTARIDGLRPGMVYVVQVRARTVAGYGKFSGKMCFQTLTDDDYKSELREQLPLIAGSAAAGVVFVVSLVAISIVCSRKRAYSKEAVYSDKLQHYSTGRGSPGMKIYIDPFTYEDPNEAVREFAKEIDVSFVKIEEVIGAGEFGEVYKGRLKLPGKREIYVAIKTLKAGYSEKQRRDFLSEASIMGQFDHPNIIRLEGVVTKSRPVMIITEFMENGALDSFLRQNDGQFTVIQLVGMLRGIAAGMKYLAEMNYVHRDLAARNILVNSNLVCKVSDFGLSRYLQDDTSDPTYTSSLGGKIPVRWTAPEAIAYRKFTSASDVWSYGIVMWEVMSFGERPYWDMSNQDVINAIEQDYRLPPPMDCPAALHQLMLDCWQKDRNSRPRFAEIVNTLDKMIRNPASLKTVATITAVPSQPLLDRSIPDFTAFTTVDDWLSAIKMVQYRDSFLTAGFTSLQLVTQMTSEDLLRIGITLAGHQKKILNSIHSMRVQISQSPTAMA

SH2 binding enrichment [14] | SH2 binding enrichment [15] | SH2 binding enrichment [16] | Sequence | phosphorylation enrichment [1] | phosphorylation enrichment [2] | phosphorylation enrichment [3] | phosphorylation enrichment [4] | phosphorylation enrichment [5] | phosphorylation enrichment [6] | phosphorylation enrichment [7] | phosphorylation enrichment [8] | phosphorylation enrichment [9] | phosphorylation enrichment [10] | phosphorylation enrichment [11] | phosphorylation enrichment [12] | phosphorylation enrichment [13]
1.16 | 1.14 | 0.686 | PRLMLYNPTTY [EGFR_Y270_P266R] | 0.922 | 0.889 | 0.905 | 0.731 | 0.776 | 0.7 | 1.21 | 0.601 | 0.692 | 1.08 | 0.649 | 0.812 | 0.526
0.987 | 1.27 | 0.914 | CTTIHNNYMCN [TP53_Y234_Y234N] | 0.712 | 0.44 | 0.456 | 0.423 | 0.452 | 0.383 | 0.725 | 0.432 | 0.423 | 0.61 | 0.379 | 0.63 | 0.385
0.851 | 0.484 | 0.401 | LVSCTYQLARR [FGFR2_Y608_G613R] | 1.57 | 0.816 | 1.28 | 0.788 | 0.793 | 0.896 | 1.33 | 0.699 | 0.891 | 1.36 | 0.861 | 0.721 | 0.438
0.86 | 0.696 | 0.472 | KPMDTYFDSTR [DYNC2H1_Y2230_YF] | 0.79 | 0.666 | 0.517 | 0.778 | 0.651 | 0.526 | 0.804 | 0.452 | 0.484 | 0.758 | 0.489 | 0.615 | 0.512
0.9 | 0.879 | 0.774 | AKNKDYMSIIR [GNE_Y197] | 0.585 | 0.851 | 0.553 | 0.432 | 0.585 | 0.473 | 0.677 | 0.409 | 0.483 | 0.706 | 0.468 | 0.676 | 0.452
0.698 | 6.25 | 0.564 | ADYYDYGRGLS [KHDRBS3_Y304_H306R] | 3.83 | 15.9 | 17.4 | 17.9 | 15.5 | 1.22 | 0.831 | 6.79 | 7.62 | 6.26 | 3.88 | 0.967 | 4.1
1.13 | 0.716 | 0.638 | ADLTEYLSTHY [UQCRC1_Y219] | 1.01 | 0.58 | 0.622 | 0.52 | 0.697 | 0.553 | 0.972 | 0.549 | 0.555 | 0.908 | 0.462 | 0.649 | 0.625
0.867 | 0.731 | 0.676 | FGSIMYEFVGK [SLC18A1_Y251_V249I] | 1.12 | 1.73 | 1.04 | 0.658 | 0.652 | 9.41 | 0.983 | 1.09 | 5.05 | 0.703 | 6.29 | 0.508 | 1.44
0.831 | 0.774 | 0.571 | QMVRMYASSFM [AVPR2_Y124_G122R_YF] | 1.26 | 0.59 | 0.552 | 0.605 | 0.677 | 0.482 | 0.843 | 0.605 | 0.425 | 0.769 | 0.544 | 0.745 | 0.328
0.705 | 0.399 | 0.415 | LKLWDYRRGRC [WDR5B_Y239_S240R] | 0.871 | 0.664 | 0.857 | 0.681 | 0.699 | 0.605 | 0.757 | 0.604 | 0.541 | 0.683 | 0.708 | 0.728 | 0.672
0.78 | 0.672 | 1.01 | DENWFYTRPAS [RPS19_Y54_A57P] | 1.46 | 0.59 | 0.55 | 0.496 | 0.734 | 0.676 | 1.07 | 0.497 | 0.565 | 1.43 | 0.477 | 0.673 | 0.489
0.781 | 0.753 | 0.527 | FISVGYVDGTQ [HLA-B_Y51_D54G] | 0.741 | 0.268 | 0.401 | 0.353 | 0.587 | 0.358 | 0.807 | 0.315 | 0.375 | 0.696 | 0.348 | 0.572 | 0.398
1.24 | 0.803 | 1.32 | KELAPYDENCF [RPS19_Y48_W52C] | 1.32 | 0.628 | 0.696 | 0.573 | 0.902 | 0.632 | 1.48 | 0.583 | 0.57 | 1.31 | 0.487 | 0.997 | 0.612
0.631 | 0.713 | 0.43 | RFLRGYQQDAY [HLA-A_Y137_R138Q] | 0.894 | 0.519 | 0.535 | 0.548 | 0.633 | 0.64 | 0.81 | 0.349 | 0.404 | 0.803 | 0.665 | 0.843 | 0.715
0.875 | 1.11 | 0.617 | GGSSPYSRRLA [CDK13_Y351_P356A] | 0.626 | 0.363 | 0.326 | 0.356 | 0.395 | 0.344 | 0.565 | 0.426 | 0.425 | 0.512 | 0.443 | 0.567 | 0.468
0.67 | 0.63 | 0.346 | DHTVNYVLKCR [PLEKHG4_Y1068_R1064H] | 1.18 | 0.699 | 0.677 | 0.602 | 0.855 | 0.512 | 1.38 | 0.479 | 0.532 | 1.09 | 0.419 | 0.859 | 0.409
0.85 | 0.726 | 0.552 | STFVPYEIKVQ [L1CAM_Y784] | 0.906 | 0.564 | 0.512 | 0.506 | 0.629 | 0.527 | 0.996 | 0.538 | 0.475 | 0.805 | 0.338 | 0.678 | 0.393

The next lines start with the sequence.

Sequence | SH2 binding enrichment [14] | SH2 binding enrichment [15] | SH2 binding enrichment [16] | phosphorylation enrichment [1] | phosphorylation enrichment [2] | phosphorylation enrichment [3] | phosphorylation enrichment [4] | phosphorylation enrichment [5] | phosphorylation enrichment [6] | phosphorylation enrichment [7] | phosphorylation enrichment [8] | phosphorylation enrichment [9] | phosphorylation enrichment [10] | phosphorylation enrichment [11] | phosphorylation enrichment [12] | phosphorylation enrichment [13]
HNQDDYSFPSR [LDLR_Y845_G844D_YF] | 0.723 | 0.8 | 0.678 | 5.49 | 1.3 | 2.14 | 0.539 | 0.75 | 0.573 | 0.77 | 0.737 | 0.586 | 0.536 | 0.553 | 0.545 | 0.633
RSFPSYYTSHV [NEFL_Y442] | 1.17 | 1.11 | 1.28 | 1.05 | 2.37 | 1.34 | 2.19 | 1.28 | 0.65 | 1.05 | 0.775 | 1.1 | 3.72 | 7.71 | 1.02 | 1.12
FLRTGYSIPFG [TGM1_Y370_V372I_YF] | 1.06 | 1.62 | 5.52 | 0.844 | 0.538 | 0.471 | 0.486 | 0.769 | 0.409 | 0.934 | 0.473 | 0.423 | 0.863 | 0.753 | 0.775 | 0.44
SVTFTYSPALN [TP53_Y126_C124Y_YF] | 0.862 | 0.705 | 0.457 | 1.08 | 0.502 | 0.554 | 0.392 | 0.697 | 0.465 | 1.21 | 0.424 | 0.453 | 0.991 | 0.336 | 0.675 | 0.392
TRVMEYISCLD [CLTCL1_Y1043_R1046C] | 0.626 | 0.478 | 0.545 | 1.18 | 0.661 | 0.749 | 0.599 | 0.843 | 0.592 | 1.18 | 0.521 | 0.647 | 0.995 | 0.507 | 1.08 | 0.457
EMQAAYQKVVA [HBD_Y131_Q126E] | 0.688 | 0.498 | 0.65 | 0.614 | 0.393 | 0.42 | 0.405 | 0.574 | 0.446 | 0.656 | 0.472 | 0.535 | 0.581 | 0.399 | 0.421 | 0.391
EATKGYPDDPT [G6PD_Y322_L323P] | 0.765 | 0.538 | 0.485 | 0.901 | 0.501 | 0.673 | 0.465 | 0.609 | 0.483 | 1.05 | 0.479 | 0.508 | 1.07 | 0.515 | 0.786 | 0.493
ALAHKYLGGGG [HBB_Y146_H147L] | 1.01 | 0.608 | 0.503 | 0.378 | 0.324 | 0.387 | 0.307 | 0.325 | 0.269 | 0.389 | 0.366 | 0.347 | 0.464 | 0.407 | 0.289 | 0.278
DFLSSYSAVNE [OAT_Y85_Q90E] | 0.864 | 0.902 | 2.35 | 0.896 | 0.504 | 0.596 | 0.55 | 0.685 | 0.525 | 0.953 | 0.531 | 0.554 | 0.745 | 0.49 | 0.566 | 0.468
FRPPYYHRDCM [HGD_Y334_N337D] | 1.08 | 0.913 | 1.09 | 0.805 | 0.536 | 0.611 | 0.56 | 0.735 | 0.499 | 0.867 | 0.417 | 0.415 | 0.723 | 0.444 | 0.572 | 0.455
DLRTGYSVPYG [TGM1_Y370_Y365D] | 0.906 | 0.717 | 9.61 | 0.721 | 0.409 | 0.411 | 0.553 | 0.592 | 0.456 | 0.665 | 0.392 | 0.459 | 0.663 | 0.399 | 0.568 | 0.384
SAASSYSFSDL [EMD_Y59] | 0.846 | 0.598 | 0.544 | 0.839 | 0.508 | 0.47 | 0.434 | 0.666 | 0.478 | 0.951 | 0.477 | 0.468 | 0.874 | 0.498 | 0.753 | 0.455
FAASSYSFSDL [EMD_Y59_S54F] | 0.864 | 0.631 | 0.825 | 0.813 | 0.643 | 0.517 | 0.548 | 0.663 | 0.547 | 1.15 | 0.558 | 0.64 | 0.849 | 0.78 | 0.707 | 0.639
QDLFLYQTHSE [PKHD1_Y255] | 0.763 | 0.696 | 0.49 | 1.52 | 0.887 | 0.726 | 0.492 | 0.822 | 0.778 | 1.96 | 0.59 | 0.744 | 1.97 | 0.543 | 1.56 | 0.964
RIVRKYKKVRF [F8_Y442_G439V] | 0.652 | 0.503 | 0.477 | 0.964 | 0.699 | 0.84 | 0.647 | 0.765 | 0.93 | 0.78 | 0.823 | 0.547 | 0.65 | 0.824 | 0.687 | 0.87
VAMDDYLKNVM [LRRK2_Y707] | 1.01 | 0.648 | 0.418 | 0.903 | 0.517 | 0.409 | 0.493 | 0.59 | 0.333 | 0.956 | 0.449 | 0.418 | 0.831 | 0.51 | 0.659 | 0.409
